This passage reports binding result and Kd results from PMC8169993.

Broadly, the Kd is the free concentration of one partner at which half of the binding sites on the other are occupied at equilibrium, for simple one-to-one binding.

The target in data set [1] is T1, RPA (heterotrimer RPA1/RPA2/RPA3) (Homo sapiens, UniProt P27694;P15927;P35244 1-616;1-270;1-121). As to the kind of experiment: gel filtration. On the technique in general: Size exclusion chromatography separates by hydrodynamic size, large species first.
T1 sequence (P27694 whole entry, chain 1 of 3): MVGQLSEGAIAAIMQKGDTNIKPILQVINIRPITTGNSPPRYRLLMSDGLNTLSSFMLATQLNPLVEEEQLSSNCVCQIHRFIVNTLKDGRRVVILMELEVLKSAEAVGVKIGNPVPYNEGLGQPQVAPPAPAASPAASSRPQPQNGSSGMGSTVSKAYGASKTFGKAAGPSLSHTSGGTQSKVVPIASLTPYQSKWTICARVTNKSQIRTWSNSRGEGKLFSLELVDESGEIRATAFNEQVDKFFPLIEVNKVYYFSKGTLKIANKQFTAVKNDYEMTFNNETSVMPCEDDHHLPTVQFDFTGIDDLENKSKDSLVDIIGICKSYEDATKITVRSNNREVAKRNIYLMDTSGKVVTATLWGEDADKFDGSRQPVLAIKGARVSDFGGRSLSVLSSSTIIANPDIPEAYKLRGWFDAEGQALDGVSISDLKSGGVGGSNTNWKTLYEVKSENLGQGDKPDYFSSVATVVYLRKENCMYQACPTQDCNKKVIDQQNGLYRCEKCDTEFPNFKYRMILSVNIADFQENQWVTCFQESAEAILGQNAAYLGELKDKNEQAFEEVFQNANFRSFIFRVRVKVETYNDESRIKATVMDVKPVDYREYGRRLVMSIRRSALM
T1 sequence (P15927 whole entry, chain 2 of 3): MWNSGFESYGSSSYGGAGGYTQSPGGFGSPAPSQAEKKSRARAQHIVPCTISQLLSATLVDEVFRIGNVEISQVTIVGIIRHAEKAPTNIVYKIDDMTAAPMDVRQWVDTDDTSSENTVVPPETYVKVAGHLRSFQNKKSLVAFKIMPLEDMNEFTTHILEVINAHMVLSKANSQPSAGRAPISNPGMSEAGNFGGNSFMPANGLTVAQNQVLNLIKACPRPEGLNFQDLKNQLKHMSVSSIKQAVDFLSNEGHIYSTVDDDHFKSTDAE
T1 sequence (P35244 whole entry, chain 3 of 3): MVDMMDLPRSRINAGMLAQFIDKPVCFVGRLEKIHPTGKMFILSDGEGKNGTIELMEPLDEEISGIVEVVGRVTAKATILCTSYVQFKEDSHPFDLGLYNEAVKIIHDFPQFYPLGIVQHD
Data set [2] addresses T1, RPA (heterotrimer RPA1/RPA2/RPA3). The data set is described as follows: fluorescence polarization. On the technique in general: Polarisation of emitted light reports the rotation of a fluorescent probe.
The target is the same in data set [3]. The data set is described as follows: smFRET.
For data set [4] the target is unchanged. As to the kind of experiment: smFRET. This is another data set of the same source.
Data set [5] shares this target. The data set is described as follows: smFRET. This is another data set of the same source.

B1: 4G4 (mixed)
DNA 1: GCGTGGCACCGGTAATAGGAAATAGGAGATTGGGGTGTGGGGACAGGGGTGTGGGGTT
DNA 2: TCCTATTTCCTATTACCGGTGCCACGC
On to B1, for which, in data set [1], the binding result is recorded as “binds”.

B2: 3G4L1 (FP substrate) (mixed)
DNA 1: GCGTGGCACCGGTAATAGGAAATAGGAGATTGGGTGGGTGGGTGGGTT
DNA 2: TCCTATTTCCTATTACCGGTGCCACGC
Consider B2, for which, in data set [2], the Kd was determined as 8.6 nM.

B3: 3G4L4 (mixed)
DNA 1: GCGTGGCACCGGTAATAGGAAATAGGAGATTGGGTTTTGGGTTTTGGGTTTTGGGTT
DNA 2: TCCTATTTCCTATTACCGGTGCCACGC
With B3, in data set [3], the binding result is “binds”.

B4: 27bp4nt (mixed)
DNA 1: GCGTGGCACCGGTAATAGGAAATAGGAGATT
DNA 2: TCCTATTTCCTATTACCGGTGCCACGC
As for B4, the binding result in data set [4] is on record as “binds”.

B5: 3G4L121* (mixed)
DNA 1: GGGTGGGTAGGGTGGGATGTATGACAAGGAAGG
DNA 2: CCTTCCTTGTCATAC
As to B5, the binding result in data set [5] is recorded as “binds”.

B6: 3G4L3 (FP substrate) (mixed)
DNA 1: GCGTGGCACCGGTAATAGGAAATAGGAGATTGGGTTAGGGTTAGGGTTAGGGTT
DNA 2: TCCTATTTCCTATTACCGGTGCCACGC
On to B6, for which, in data set [2], the Kd was determined as 6.3 nM.

B7: 3G4L5 (mixed)
DNA 1: GCGTGGCACCGGTAATAGGAAATAGGAGATTGGGTTTTTGGGTTTTTGGGTTTTTGGGTT
DNA 2: TCCTATTTCCTATTACCGGTGCCACGC
In the case of B7, the binding result in data set [3] is on record as “binds”.
